In general, stoichiometry N refers to a count of units in the complex or per binding partner.

The data set deals with the molecule itself. The data set is described as follows: SEC. On the technique in general: SEC sorts molecules by how far they enter the pores of the column.

B1: β-galactosidase (GLB1), endogenous in mouse brain (enzyme, mouse (endogenous in mouse brain), UniProt P23780 30-647, looked up)
chain: QRTFKLDYSRDRFLKDGQPFRYISGSIHYFRIPRFYWEDRLLKMKMAGLNAIQMYVPWNFHEPQPGQYEFSGDRDVEHFIQLAHELGLLVILRPGPYICAEWDMGGLPAWLLEKQSIVLRSSDPDYLVAVDKWLAVLLPKMKPLLYQNGGPIITVQVENEYGSYFACDYDYLRFLVHRFRYHLGNDVILFTTDGASEKMLKCGTLQDLYATVDFGTGNNITQAFLVQRKFEPKGPLINSEFYTGWLDHWGKPHSTVKTKTLATSLYNLLARGANVNLYMFIGGTNFAYWNGANTPYEPQPTSYDYDAPLSEAGDLTKKYFALREVIQMFKEVPEGPIPPSTPKFAYGKVALRKFKTVAEALGILCPNGPVKSLYPLTFTQVKQYFGYVLYRTTLPQDCSNPKPIFSSPFNGVRDRAYVSVDGVPQGILDRNLMTALNIRGKAGATLDILVENMGRVNYGRFINDFKGLISNMTINSTVLTNWTVFPLNTEAMVRNHLWGREASDEGHLDGRSTSNSSDLILPTFYVGNFSIPSGIPDLPQDTFIQFPGWSKGQVWINGFNLGRYWPTMGPQKTLFVPRNILTTSAPNNITVLELEFAPCSEGTPELCTVEFVDTPVIS
Consider B1, for which the “stoichiometry N” value is 4.

For the origin of these results see article doi:10.1101/2024.04.26.587986 (bioRxiv, 2024).
